B1: ceruloplasmin: comparison protein in transcytosis experiments (protein, UniProt P00450 20-1065, looked up)
Ceruloplasmin: KEKHYYIGIIETTWDYASDHGEKKLISVDTEHSNIYLQNGPDRIGRLYKKALYLQYTDETFRTTIEKPVWLGFLGPIIKAETGDKVYVHLKNLASRPYTFHSHGITYYKEHEGAIYPDNTTDFQRADDKVYPGEQYTYMLLATEEQSPGEGDGNCVTRIYHSHIDAPKDIASGLIGPLIICKKDSLDKEKEKHIDREFVVMFSVVDENFSWYLEDNIKTYCSEPEKVDKDNEDFQESNRMYSVNGYTFGSLPGLSMCAEDRVKWYLFGMGNEVDVHAAFFHGQALTNKNYRIDTINLFPATLFDAYMVAQNPGEWMLSCQNLNHLKAGLQAFFQVQECNKSSSKDNIRGKHVRHYYIAAEEIIWNYAPSGIDIFTKENLTAPGSDSAVFFEQGTTRIGGSYKKLVYREYTDASFTNRKERGPEEEHLGILGPVIWAEVGDTIRVTFHNKGAYPLSIEPIGVRFNKNNEGTYYSPNYNPQSRSVPPSASHVAPTETFTYEWTVPKEVGPTNADPVCLAKMYYSAVEPTKDIFTGLIGPMKICKKGSLHANGRQKDVDKEFYLFPTVFDENESLLLEDNIRMFTTAPDQVDKEDEDFQESNKMHSMNGFMYGNQPGLTMCKGDSVVWYLFSAGNEADVHGIYFSGNTYLWRGERRDTANLFPQTSLTLHMWPDTEGTFNVECLTTDHYTGGMKQKYTVNQCRRQSEDSTFYLGERTYYIAAVEVEWDYSPQREWEKELHHLQEQNVSNAFLDKGEFYIGSKYKKVVYRQYTDSTFRVPVERKAEEEHLGILGPQLHADVGDKVKIIFKNMATRPYSIHAHGVQTESSTVTPTLPGETLTYVWKIPERSGAGTEDSACIPWAYYSTVDQVKDLYSGLIGPLIVCRRPYLKVFNPRRKLEFALLFLVFDENESWYLDDNIKTYSDHPEKVNKDDEEFIESNKMHAINGRMFGNLQGLTMHVGDEVNWYLMGMGNEIDLHTVHFHGHSFQYKHRGVYSSDVFDIFPGTYQTLEMFPRTPGIWLLHCHVTDHIHAGMETTYTVLQNEDTKSG
B2: receptor-associated protein (RAP): LRP antagonist, receptor-associated protein (protein, UniProt P30533 35-357, looked up)
Alpha-2-macroglobulin …: YSREKNQPKPSPKRESGEEFRMEKLNQLWEKAQRLHLPPVRLAELHADLKIQERDELAWKKLKLDGLDEDGEKEARLIRNLNVILAKYGLDGKKDARQVTSNSLSGTQEDGLDDPRLEKLWHKAKTSGKFSGEELDKLWREFLHHKEKVHEYNVLLETLSRTEEIHENVISPSDLSDIKGSVLHSRHTELKEKLRSINQGLDRLRRVSHQGYSTEAEFEEPRVIDLWDLAQSANLTDKELEAFREELKHFEAKIEKHNHYQKQLEIAHEKLRHAESVGDGERVSRSREKHALLEGRTKELGYTVKKHLQDLSGRISRARHNEL
B3: Lactoferrin: comparison protein in transcytosis experiment (protein, UniProt P02788 20-710, looked up)
Lactotransferrin: GRRRSVQWCAVSQPEATKCFQWQRNMRKVRGPPVSCIKRDSPIQCIQAIAENRADAVTLDGGFIYEAGLAPYKLRPVAAEVYGTERQPRTHYYAVAVVKKGGSFQLNELQGLKSCHTGLRRTAGWNVPIGTLRPFLNWTGPPEPIEAAVARFFSASCVPGADKGQFPNLCRLCAGTGENKCAFSSQEPYFSYSGAFKCLRDGAGDVAFIRESTVFEDLSDEAERDEYELLCPDNTRKPVDKFKDCHLARVPSHAVVARSVNGKEDAIWNLLRQAQEKFGKDKSPKFQLFGSPSGQKDLLFKDSAIGFSRVPPRIDSGLYLGSGYFTAIQNLRKSEEEVAARRARVVWCAVGEQELRKCNQWSGLSEGSVTCSSASTTEDCIALVLKGEADAMSLDGGYVYTAGKCGLVPVLAENYKSQQSSDPDPNCVDRPVEGYLAVAVVRRSDTSLTWNSVKGKKSCHTAVDRTAGWNIPMGLLFNQTGSCKFDEYFSQSCAPGSDPRSNLCALCIGDEQGENKCVPNSNERYYGYTGAFRCLAENAGDVAFVKDVTVLQNTDGNNNEAWAKDLKLADFALLCLDGKRKPVTEARSCHLAMAPNHAVVSRMDKVERLKQVLLHQQAKFGRNGSDCPDKFCLFQSETKNLLFNDNTECLARLHGKTTYEKYLGPQYVAGITNLKKCSTSPLLEACEFLRK
B4: Transferrin: comparison protein, bovine holo-transferrin (protein, UniProt Q29443 20-704, looked up)
Serotransferrin: DPERTVRWCTISTHEANKCASFRENVLRILESGPFVSCVKKTSHMDCIKAISNNEADAVTLDGGLVYEAGLKPNNLKPVVAEFHGTKDNPQTHYYAVAVVKKDTDFKLNELRGKKSCHTGLGRSAGWNIPMAKLYKELPDPQESIQRAAANFFSASCVPCADQSSFPKLCQLCAGKGTDKCACSNHEPYFGYSGAFKCLMEGAGDVAFVKHSTVFDNLPNPEDRKNYELLCGDNTRKSVDDYQECYLAMVPSHAVVARTVGGKEDVIWELLNHAQEHFGKDKPDNFQLFQSPHGKDLLFKDSADGFLKIPSKMDFELYLGYEYVTALQNLRESKPPDSSKDECMVKWCAIGHQERTKCDRWSGFSGGAIECETAENTEECIAKIMKGEADAMSLDGGYLYIAGKCGLVPVLAENYKTEGESCKNTPEKGYLAVAVVKTSDANINWNNLKDKKSCHTAVDRTAGWNIPMGLLYSKINNCKFDEFFSAGCAPGSPRNSSLCALCIGSEKGTGKECVPNSNERYYGYTGAFRCLVEKGDVAFVKDQTVIQNTDGNNNEAWAKNLKKENFEVLCKDGTRKPVTDAENCHLARGPNHAVVSRKDKATCVEKILNKQQDDFGKSVTDCTSNFCLFQSNSKDLLFRDDTKCLASIAKKTYDSYLGDDYVRAMTNLRQCSTSKLLEACTFHKP
modifications: holo (iron-loaded)
B5: Melanotransferrin (p97): comparison protein, p97 obtained from Synapse Technologies (protein, UniProt P08582 20-709, looked up)
Melanotransferrin: GMEVRWCATSDPEQHKCGNMSEAFREAGIQPSLLCVRGTSADHCVQLIAAQEADAITLDGGAIYEAGKEHGLKPVVGEVYDQEVGTSYYAVAVVRRSSHVTIDTLKGVKSCHTGINRTVGWNVPVGYLVESGRLSVMGCDVLKAVSDYFGGSCVPGAGETSYSESLCRLCRGDSSGEGVCDKSPLERYYDYSGAFRCLAEGAGDVAFVKHSTVLENTDGKTLPSWGQALLSQDFELLCRDGSRADVTEWRQCHLARVPAHAVVVRADTDGGLIFRLLNEGQRLFSHEGSSFQMFSSEAYGQKDLLFKDSTSELVPIATQTYEAWLGHEYLHAMKGLLCDPNRLPPYLRWCVLSTPEIQKCGDMAVAFRRQRLKPEIQCVSAKSPQHCMERIQAEQVDAVTLSGEDIYTAGKTYGLVPAAGEHYAPEDSSNSYYVVAVVRRDSSHAFTLDELRGKRSCHAGFGSPAGWDVPVGALIQRGFIRPKDCDVLTAVSEFFNASCVPVNNPKNYPSSLCALCVGDEQGRNKCVGNSQERYYGYRGAFRCLVENAGDVAFVRHTTVFDNTNGHNSEPWAAELRSEDYELLCPNGARAEVSQFAACNLAQIPPHAVMVRPDTNIFTVYGLLDKAQDLFGDDHNKNGFKMFDSSNYHGQDLLFKDATVRAVPVGEKTTYRGWLGLDYVAALEGMSSQQC

Experiments:
[1] = system: bovine brain capillary endothelial cells (BBCECs); test: Transcytosis of 125I-proteins across BBCEC monolayers (in vitro blood-brain barrier model); settings: for Ratios (x-fold), 125I-proteins transcytosis across BBCEC monolayers: 250 nM; for Ratios (x-fold), 125I-proteins transcytosis across BBCEC monolayers / Ratios Aprotinin/Protein: aprotinin transcytosis divided by that of the named protein; for Transcytosis: across in vitro BBB model
Description: The model consists of a co-culture of bovine brain capillary endothelial cells and rat glial cells.
The in vitro model of BBB was established by using a co-culture of BBCECs and astrocytes. Prior to cell culture, plate inserts (Millicell-PC 3.0 μM; 30-mm diameter) were coated on the upper side with rat tail collagen. They were then set in six-well microplates containing the astrocytes and BBCECs were plated on the upper side of the filters in 2 mL of co-culture medium. This BBCEC medium was changed three times a week. Under these conditions, differentiated BBCECs formed a confluent monolayer 7 days later. Experiments were performed between 5 and 7 days after confluence was reached. The permeability coefficient for sucrose was measured to verify the endothelial permeability.
Briefly, after removing the meninges, the brain tissue was forced gently through a 82 μm nylon sieve. Astrocytes were plated on six-well microplates at a concentration of 1.2×10^5 cells/mL in 2 mL of optimal culture medium (DMEM) supplemented with 10% heat inactivated fetal bovine serum. The medium was changed twice a week.
Bovine brain capillary endothelial cells (BBCECs) were obtained from Cellial Technologies. The cells were cultured in the presence of DMEM medium supplemented with 10% (v/v) horse serum and 10% heat-inactivated calf serum, 2 mM of glutamine, 50 μg/mL of gentamycin, and 1 ng/mL of basic fibroblast growth factor, added every other day.
One insert covered with BBCECs was set into a six-well microplate with 2 mL of Ringer-Hepes and was pre-incubated for 2 h at 37° C. [^125I]-aprotinin, [^125I]-p97, [^125I]-ceruloplasmin or [^125I]-transferrin (250 nM final concentration) was added to the upper side of the filter covered with cells. At various times, the insert was transferred to another well to avoid a possible reendocytosis of [^125I]-proteins by the abluminal side of the BBCECs. At the end of experiment, [^125I]-proteins were assessed in 500 μL of the lower chamber of well by TCA precipitation.
Aprotinin, p97 and bovine holo-transferrin were iodinated with standard procedures using iodo-beads from Sigma™. Bovine holo-transferrin was diluted in 0.1M phosphate buffer, pH 6.5 (PB). P97 obtained from Synapse Technologies in neutralized citrate at pH 7.0 was dialyzed against this PB. Two iodo-beads were used for each protein. These beads were washed twice with 3 mL of PB on a Whatman™ filter and resuspended in 60 μL of PB. ^125I (1 mCi) from Amersham-Pharmacia biotech was added to the bead suspension for 5 minutes at room temperature. The iodination for each protein was initiated by the addition of 100 μg (80-100 μL).

[2] = system: endothelial cell monolayers (in vitro blood-brain barrier model); test: Permeability coefficient (Pe) of proteins in the in vitro blood-brain barrier model
Description: The permeability coefficient (Pe) was calculated as:
At the end of the experiments, amounts of the radiotracers in the basolateral compartment were measured in a liquid scintillation counter. The permeability coefficient (Pe) for sucrose was calculated as previously described (Dehouck, M. P., Jolliet-Riant, P., Brée, F., Fruchart, J. C., Cecchelli, R., Tillement, J. P., J. Neurochem. 58:1790-1797, 1992) using filters coated or non-coated with EC.
The transport of Angio-pep1 from the apical-to-basolateral side of inserts covered with or without endothelial cell monolayers was measured. The results are expressed as the clearance of Angio-pep1 as a function of time. The slopes correspond to the permeability of the peptide through the filter alone (Psf) and to the total permeability of the endothelial cell monolayers (Pst).
The permeability coefficients for Angio-pep1, aprotinin, leptin and transferrin were determined using the in vitro blood-brain barrier model. The permeability coefficient (Pe) was calculated as described above.

| Molecule | Ratios (x-fold), 125I-proteins transcytosis across BBCEC monolayers [1] | effect on aprotinin transcytosis ([1]; [125I]-aprotinin 250 nM with or without RAP, 37° C., FIG. 14) | Transcytosis [1] | Ratios Aprotinin/Protein [1] | Ratios (permeability coefficients) ([2]; Pe of Angio-pep1 divided by Pe of the named protein) | Permeability coefficient (Pe) ([2]; in vitro blood-brain barrier model) |
| --- | --- | --- | --- | --- | --- | --- |
| B1 | 44.0 x-fold |  |  |  |  |  |
| B2 |  | inhibition |  |  |  |  |
| B3 |  |  | 0.05 pmol/h/cm^2 | 50 |  |  |
| B4 | 11.6 x-fold |  | 0.14 pmol/h/cm^2 | 19 | 210 | 0.095 ×10⁻⁶ cm/s |
| B5 | 8.2 x-fold |  | 0.28 pmol/h/cm^2 | 10 |  |  |
